Test results: patent US20250092426, “CAS ENDONUCLEASES AND RELATED METHODS” (Flagship Pioneering Innovations VII, LLC, published 2025)

Biological target: T1, CasEnd-34 (synthetic construct)
T1 chain: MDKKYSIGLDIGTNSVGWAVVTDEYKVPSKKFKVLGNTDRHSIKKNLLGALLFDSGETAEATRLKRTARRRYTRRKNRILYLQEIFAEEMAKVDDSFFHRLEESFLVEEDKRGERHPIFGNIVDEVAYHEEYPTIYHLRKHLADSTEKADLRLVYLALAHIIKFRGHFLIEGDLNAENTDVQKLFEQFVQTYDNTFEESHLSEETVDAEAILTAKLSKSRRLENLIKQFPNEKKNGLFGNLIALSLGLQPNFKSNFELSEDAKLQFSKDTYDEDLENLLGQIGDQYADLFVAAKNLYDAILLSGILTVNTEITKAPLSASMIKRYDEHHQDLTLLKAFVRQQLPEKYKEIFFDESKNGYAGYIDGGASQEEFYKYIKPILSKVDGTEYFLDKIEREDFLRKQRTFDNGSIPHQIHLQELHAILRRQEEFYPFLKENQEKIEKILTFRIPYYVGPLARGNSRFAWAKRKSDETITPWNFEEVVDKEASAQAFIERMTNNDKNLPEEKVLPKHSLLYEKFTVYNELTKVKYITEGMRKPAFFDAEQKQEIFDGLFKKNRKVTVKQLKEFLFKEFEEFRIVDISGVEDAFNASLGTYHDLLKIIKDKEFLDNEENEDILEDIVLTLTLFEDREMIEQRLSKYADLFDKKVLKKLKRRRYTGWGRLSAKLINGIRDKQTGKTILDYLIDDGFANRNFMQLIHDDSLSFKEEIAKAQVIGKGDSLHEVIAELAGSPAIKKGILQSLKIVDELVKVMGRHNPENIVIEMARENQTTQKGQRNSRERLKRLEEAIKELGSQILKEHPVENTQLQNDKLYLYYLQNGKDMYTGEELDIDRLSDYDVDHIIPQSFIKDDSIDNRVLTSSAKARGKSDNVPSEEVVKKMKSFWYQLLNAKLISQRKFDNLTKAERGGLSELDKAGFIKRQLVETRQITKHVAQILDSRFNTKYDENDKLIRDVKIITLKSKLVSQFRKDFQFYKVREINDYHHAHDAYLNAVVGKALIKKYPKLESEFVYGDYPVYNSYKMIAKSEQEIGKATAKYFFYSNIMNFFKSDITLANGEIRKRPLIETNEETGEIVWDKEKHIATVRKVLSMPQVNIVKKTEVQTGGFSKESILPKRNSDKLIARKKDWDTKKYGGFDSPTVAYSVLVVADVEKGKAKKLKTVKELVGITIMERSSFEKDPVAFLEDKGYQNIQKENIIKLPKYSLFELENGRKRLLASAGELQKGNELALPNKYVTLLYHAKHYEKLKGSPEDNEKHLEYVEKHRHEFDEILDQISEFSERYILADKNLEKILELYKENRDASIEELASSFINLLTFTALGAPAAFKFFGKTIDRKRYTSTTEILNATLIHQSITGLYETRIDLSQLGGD
Experiment: cell_activity; +++; HEK293T; PAM not stated
Method: The ability of the candidate endonucleases, including endonucleases 1-38 (CasEnds 1-38) (set forth in Table 1 and SEQ ID NOS: 1-38, respectively), to mediate target nucleic acid editing was assessed utilizing a blue fluorescent protein (BFP) to green fluorescent protein (GFP) conversion assay, wherein programmed nucleotide editing of the BFP gene was measured by the expression of GFP (signifying the conversion of […] via the programmed nucleotide edit in the BFP gene). The conversion assay was conducted utilizing the reverse transcriptase-based system (as described above in Example 2) comprising a template RNA (designed to convert BFP to GFP) and a fusion protein comprising a retroviral reverse transcriptase and the individual subject Cas endonuclease. The amino acid sequence of the base portion of the fusion protein (without the individual subject Cas endonuclease) is set forth in Table 7 (SEQ ID NO: 43).
Briefly, 200 ng of plasmid DNA encoding the subject fusion protein (containing one of the subject CasEnds) and 200 ng of template RNA (in plasmid format) were added to 25 μL SF buffer containing 250,000 HEK293T BFP-expressing cells. Nucleofection was mediated utilizing program DS-150. The day of nucleofection was marked as day 0. At day 4, the cells were harvested and analyzed by flow cytometry to assess the level of BFP and GFP expression in HEK293T cells. Cells having GFP signal were defined as having undergone a successful editing event, and the percent of cells that were GFP+ on day 4 was used to determine the performance of each Cas endonuclease.

B1: BFP-to-GFP template RNA ; BFP reporter protospacer (ssRNA ; dsDNA)
RNA: GCCGAAGCACUGCACGCCGUGUUUUAGAGCUAGAAAUAGCAAGUUAAAAUAAGGCUAGUCCGUUAUCAACUUGAAAAAGUGGCACCGAGUCGGUGCACCCUGACGUACGGCGUGCAGUGCUU
DNA 1: GCCGAAGCACTGCACGCCGT
DNA 2: ACGGCGTGCAGTGCTTCGGC
  activity: ≥ 100 % of reference
